Measured values from patent KR20230175116A (dated 2023).

T1: DR3 on cells (DR3 stable cell line; DR3 on human PBMC T cells) (human, UniProt Q93038 25-417)
T1 construct: whole, on cells; Also used for the DR3 of hPBMC T cells in the NF-kB assays; also called 세포 표면에서 발현된 DR3; DR3 natural form
T1 sequence (looked up): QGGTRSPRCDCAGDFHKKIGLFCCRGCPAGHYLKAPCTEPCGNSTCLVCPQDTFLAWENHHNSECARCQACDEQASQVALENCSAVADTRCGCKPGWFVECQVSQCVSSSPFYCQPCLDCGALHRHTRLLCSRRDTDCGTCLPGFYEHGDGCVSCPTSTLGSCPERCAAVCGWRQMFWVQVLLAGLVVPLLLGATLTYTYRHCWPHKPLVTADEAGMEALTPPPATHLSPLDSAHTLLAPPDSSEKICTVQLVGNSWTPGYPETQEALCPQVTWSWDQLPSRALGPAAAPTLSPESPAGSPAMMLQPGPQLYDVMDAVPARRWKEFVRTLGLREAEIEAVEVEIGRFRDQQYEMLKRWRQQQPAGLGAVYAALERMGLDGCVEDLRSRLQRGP


molecular target: T1, DR3 on cells (DR3 stable cell line; DR3 …); assay: FACS, DR3 stable cell line, 2 ug/ml mAb, anti-human IgG PE

| binding result | Binder |
| --- | --- |
| binds | 6-2 mAb (antibody, V domains shown, Human monoclonal IgG; also called clone 6-2; clone 6-2 IgG1) VH: QVQLVQSGGGLVQPGGSLRLSCAASGFTFSSYSMNWVRQAPGKGLEWVSYISSSSSTIYYADSVKGRFTISRDNAKNSLYLQMNSLRAEDTAVYYCARWDGYCSGGSCYSGMDYWGQGTLVTVS VL: not shown |
| binds | 6-15 mAb (antibody, V domains shown, Human monoclonal IgG (detected with anti-human IgG Fc); also called clone 6-15) VH: QVQLVQSGGGLVQPGGSLRLSCAASGFTFSSYSMNWVRQAPGKGLEWVSYISSSSSTIYYADSVKGRFTISRDNAKNSLYLQMNSLRAEDTAVYYCARWDGYCSGGSCYSGMDYWGQGTLVTVS VL: DIEMTQSPSSLSASVGDKVTITCQASQDISNYLNWYQQKPGKAPKLLIYDASNLETGVPSRFSGSGSGTDSTFTISSLQPEDIATYYCQQYDNLPLTFGGGTKVEIK |
| binds | 항-DR3 4-4 항체 (4-4 mAb) (antibody, V domains shown, also called clone 4-4; clone 4-4 IgG1) VH: EVQLVESGGGLVKPGGSLRLSCAASGFTFSDYYMSWIRQAPGKGLEWVSYISSSSSYTNYADSVKGRFTISRDNAKNSLYLQMNSLRAEDTAVYYCASNVDTAMVGAFDIWGQGTLVTVS VL: DIEMTQSPSSVSASVGDTVTITCRASQHISNWLAWYQQKPGQAPKFLIYTASNLQSGVPSRFSGSGYGTDFTLTISGLQPEDFATYYCQQADSFPLTFGGGTKVDIK |
